The values below come from US20220396632A1 (VERSEAU THERAPEUTICS, published 2022).

The target in assay [1] is T1, Recombinant human PSGL-1(ECD)-hFc1 (R&D Systems, Cat. 3345-PS) (human, UniProt Q14242 42-305).
T1 construct: Bought; Gln42-Val295 counted on AAC50061; also called PSGL-1-Fc; PSGL-1-hFc1 chimera; not shown: human IgG1 Fc, Pro100-Lys330
T1 sequence: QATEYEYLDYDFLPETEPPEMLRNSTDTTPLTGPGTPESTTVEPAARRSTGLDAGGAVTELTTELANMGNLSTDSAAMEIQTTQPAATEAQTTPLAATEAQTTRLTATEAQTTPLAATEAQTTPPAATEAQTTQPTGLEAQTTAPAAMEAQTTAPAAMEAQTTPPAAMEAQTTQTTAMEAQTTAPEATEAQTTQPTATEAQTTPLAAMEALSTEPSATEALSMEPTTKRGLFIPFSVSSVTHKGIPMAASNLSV
Put plainly: Octet tandem; competitor 15A7. The protocol: (§1) Antibody binning was performed by ForteBio Octet® using a tandem assay format, with anti-human IgG biosensor-immobilized PSGL-1(ECD)-hFc1 protein, binding of competitor mAb followed by analyte antibody. As competition controls, the same antibody was competed against itself, and mAb competition was performed bidirectionally.
(§2) Antibody binning by tandem octet was performed by immobilizing 10 ug/mL PSGL-1(ECD)-hFc1 (R&D Systems, Cat. #3345-PS) in PBS, pH 7.4, onto anti-human IgG capture biosensors (ForteBio, Cat. #18-5060), binding of 100 nM competitor antibody for 300 sec., followed by binding of 100 nM of analyte mAb for 300 s in kinetic buffer (0.1% BSA in PBS containing 0.02% tween 20 and 0.05% sodium azide, pH 7.4). Synagis (Johnson et al. (1997) J. Infect. Dis. 176:1215-1224) served as a negative control mAb for competition. An Fc quench step (0.25 mg/mL human IgG Fcl; BioXcell, Cat. #BE0096, in kinetic buffer) was included when human mAbs were tested to prevent high background from the antibodies binding to the anti-human IgG biosensor. Biosensor regeneration buffer consisted of 10 mM glycine, pH 2.0.
(In general: In BLI a coated tip is dipped into the sample, and binding shifts an interference pattern.)

Assay [2] has as its target T2, PSGL-1(42-62) N-terminal peptide, sulfation state not told at the place (human, not fully specified; sulfation of Y46, Y48, Y51 not stated for these table columns).
T2 peptide: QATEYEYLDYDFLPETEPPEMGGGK
Put plainly: mAb binding to PSGL-1(42-62).

The target in assay [3] is T1, Recombinant human PSGL-1(ECD)-hFc1 (R&D …). The experiment in a line: Octet tandem; competitor 20G13. The protocol:
as §1, §2

The target of assay [4] is PSGL-1(ECD)-hFc1 I121A protein (Sino Biological) (human). Put plainly: ELISA; against WT PSGL-1(ECD)-hFc1. The protocol: (§3) A typical ELISA experiment involved binding of a single concentration or serially diluted mAb in assay buffer (3% BSA in PBS containing 0.05% Tween®20, pH 7.4) onto BSA blocked high binding microtiter plate half-wells (Corning Cat. #3690), which contained PSGL-1 protein or streptavidin-immobilized biotin peptide. After incubation for 45 min. at 37° C., the plate was washed 3 times with wash buffer (PBS containing 0.05% Tween®20, pH 7.4), and an appropriate HRP-conjugated secondary antibody added (25 ul/well) (HRP goat anti-mouse or anti-human IgG). After 45 min. incubation at 37° C., the plate was washed and antibody bound to plate-immobilized target was determined at A450 nm using HRP substrate (3,3′5,5′-tetramethylbenzidine (TMB)). For each antibody, duplicate values were averaged and assay background subtracted.
In general terms: ELISA stands for enzyme-linked immunosorbent assay.

Assay [5] deals with T3, Biotin PSGL-1(105-125) peptide (human, N-terminal acetyl; C-terminal Lys-biotin).
T3 peptide: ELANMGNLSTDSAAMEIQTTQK
The experiment in a line: ELISA; against WT PSGL-1(ECD)-hFc1. The protocol:
as §3

Assay [6] concerns the target PSGL-1(ECD)-hFc1 S116A protein (Sino Biological) (human). Put plainly: ELISA; against WT PSGL-1(ECD)-hFc1. The protocol:
as §3

In assay [7] the target is PSGL-1(ECD)-hFc1 M119A protein (Sino Biological) (human). The experiment in a line: ELISA; against WT PSGL-1(ECD)-hFc1. The method, then: as §3
Assay [8] deals with T1, Recombinant human PSGL-1(ECD)-hFc1 (R&D …). Put plainly: Octet tandem; competitor 16E17. The protocol:
as §1, §2

For assay [9] the target is unchanged. Put plainly: blocking ELISA vs VISTA-Fc, pH 6.0.
For assay [10] the target is unchanged. Put plainly: Octet tandem; competitor 19L04. The protocol:
as §1, §2

For assay [11] the target is unchanged. The experiment in a line: blocking ELISA vs P-selectin-Fc. The method, then: (§4) A typical selectin blocking ELISA assay involved coating high binding half-well plates (Corning, Cat. #3690) with 2.5 ug/mL/25 ul per well of recombinant PSGL-1-Fc protein (R&D Systems, Cat #3345-PS) in PBS, pH 7.4, overnight at 4° C. […] Antibody (test and controls) was serially diluted (25 ul/well) in duplicate in assay buffer (3% BSA in wash buffer) into appropriate wells and the plate incubated for 45 min at 37° C. […] The plate was washed ×3 and HRP-conjugated streptavidin was added in assay buffer [25 ul per well; (Jackson Immunoresearch, Cat. #016-030-084)] and the plate incubated for 45 min at 37° C. […] For each antibody, an IC50 value was determined from sigmoidal fitted titration curves.

The target is the same in assay [12]. Put plainly: Octet tandem; competitor 18F17. The method, then: as §1, §2
Assay [13] has the same target. Put plainly: blocking ELISA vs L-selectin-Fc. The protocol: as §4
For assay [14] the target is unchanged. The experiment in a line: Octet tandem; competitor 18K07. The method, then: as §1, §2
In assay [15] the target is PSGL-1(ECD)-hFc1 I121A protein (Sino Biological) (human). The experiment in a line: ELISA, plate-bound peptide or protein. The method, then:
as §3

For assay [16], the target named is T3, Biotin PSGL-1(105-125) peptide. Put plainly: ELISA, plate-bound peptide or protein. The method, then:
as §3

The target of assay [17] is PSGL-1(ECD)-hFc1 S116A protein (Sino Biological) (human). Put plainly: ELISA, plate-bound peptide or protein. The method, then: as §3
The target in assay [18] is PSGL-1(ECD)-hFc1 M119A protein (Sino Biological) (human). Put plainly: ELISA, plate-bound peptide or protein. The protocol:
as §3

Assay [19] deals with T1, Recombinant human PSGL-1(ECD)-hFc1 (R&D …). Put plainly: Octet tandem; competitor 19J23. The protocol:
as §1, §2

Assay [20] has the same target. The experiment in a line: Octet tandem; competitor 19N05. The protocol: as §1, §2
For assay [21], the target named is T4, Biotin PSGL-1(290-310) peptide (human, N-terminal acetyl; C-terminal Lys-biotin).
T4 peptide: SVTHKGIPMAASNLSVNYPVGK
Put plainly: ELISA; against WT PSGL-1(ECD)-hFc1. The method, then:
as §3

The target of assay [22] is T4, Biotin PSGL-1(290-310) peptide. The experiment in a line: ELISA, plate-bound peptide or protein. The method, then:
as §3

Assay [23] deals with T1, Recombinant human PSGL-1(ECD)-hFc1 (R&D …). Put plainly: ELISA, plate-immobilized protein.
For a further assay, the target named is T5, Human PSGL-1(ECD)-HIS (human, UniProt Q14242 42-319).
T5 construct: also called Human PSGL-1-His
T5 sequence: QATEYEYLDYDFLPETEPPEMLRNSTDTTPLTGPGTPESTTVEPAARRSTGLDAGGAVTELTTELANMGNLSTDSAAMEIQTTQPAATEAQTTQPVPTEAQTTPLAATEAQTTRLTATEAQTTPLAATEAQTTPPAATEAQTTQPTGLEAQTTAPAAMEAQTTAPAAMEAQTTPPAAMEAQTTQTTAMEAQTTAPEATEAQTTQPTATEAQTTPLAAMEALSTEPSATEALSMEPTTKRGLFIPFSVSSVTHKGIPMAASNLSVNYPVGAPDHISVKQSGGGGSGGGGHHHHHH
The experiment in a line: ELISA, plate-immobilized protein.

Sequence of PSGL-1(ECD)-hFc1 I121A protein (Sino Biological) (human) (chain, as listed by the source I121A I121A): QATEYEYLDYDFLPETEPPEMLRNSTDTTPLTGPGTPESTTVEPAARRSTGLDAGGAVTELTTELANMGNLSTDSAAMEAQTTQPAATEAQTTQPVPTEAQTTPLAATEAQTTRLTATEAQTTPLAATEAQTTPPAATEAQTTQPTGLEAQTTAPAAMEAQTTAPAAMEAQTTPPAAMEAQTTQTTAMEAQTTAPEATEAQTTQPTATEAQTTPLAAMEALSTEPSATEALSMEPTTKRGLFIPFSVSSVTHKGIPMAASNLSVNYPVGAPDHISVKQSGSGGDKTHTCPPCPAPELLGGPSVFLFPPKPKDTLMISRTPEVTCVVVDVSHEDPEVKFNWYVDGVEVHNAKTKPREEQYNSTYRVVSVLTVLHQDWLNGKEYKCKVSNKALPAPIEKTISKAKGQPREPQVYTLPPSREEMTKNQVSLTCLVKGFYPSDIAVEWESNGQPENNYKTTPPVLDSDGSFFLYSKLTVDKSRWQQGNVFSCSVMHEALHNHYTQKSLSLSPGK
Sequence of PSGL-1(ECD)-hFc1 S116A protein (Sino Biological) (human) (chain, as listed by the source S116A S116A): as the sequence (chain, as listed by the source I121A I121A) above, with S75A, A80I counted along it

B1: 15A7 (antibody, V domains shown)
VH: EVQLVESGGGLVQPGGSLRLSCAASGFTFSSFGMHWVRQAPGKGLEWVAYINGGSSTIFYANAVKGRFTISRDNAKNTLYLQMNSLRAEDTAVYYCARYASYGGGAMDYWGQGTLVTVSS
VL: DIQMTQSPSSLSASVGDRVTITCRSSQSIVHNDGNTYFEWYQQKPGKAPKLLIYKVSNRFSGVPSRFSGSGSGTHFTLTISSLQPEDFATYYCFQGSYVPLTFGQGTKVEIK
notes: Control mAb, recombinant; also called h15A7; 15A17
For orientation: EC50 means the concentration that produces a half-maximal response. Read a low EC50 as greater potency. For B1, the “% binding of analyte mAb” value in assay [1] was determined as 28.3%; in [3] it was 15.1%; in [8] it was 56.2%; in assay [10] it was 48%; in assay [12], 86.6%; in [14], 91.5%. For the same molecule, the “% binding of analyte mAb” value in [19] stood at 94.3%; in assay [20] it was 46.2%. Besides, the binding result in assay [2] is recorded as “no binding”. Besides, the EC50/EC50WTprot in assay [4] was about 60 fold; in assay [5], 7.18 fold; in assay [6], 0.78 fold; in assay [7], about 30 fold. For the same molecule, the “% max Block” value in assay [9], in assay [11] and in [13] was 0% throughout. Moreover, the EC50 was about 20 nM in assay [15], 4.31 nM in assay [16], 0.25 nM in assay [17] and about 10 nM in assay [18].

B2: 19J23 (antibody, V domains shown)
VH: EVKLVESGGGLVQPGGSLSLSCAASGFTFTDYYMSWVRQPPGKALEWLALIRNKANGYTTEYSASVKGRFTISRDDSQSILYLQVNALRAEDVATYYCARPWDYWGQGTTLTVSS
VL: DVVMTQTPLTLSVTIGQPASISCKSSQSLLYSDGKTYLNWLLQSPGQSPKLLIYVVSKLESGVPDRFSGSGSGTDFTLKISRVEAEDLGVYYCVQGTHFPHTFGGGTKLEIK
notes: Non-functional anti-PSGL-1 mAb (Verseau); only variable domains given
As usually defined, the EC50 (read off the curve) is the concentration that produces a half-maximal response. The low end stands for higher potency in that assay, the high end for lower potency in that assay. B2: the “% binding of analyte mAb” value is 84.9% in assay [1]; 55.9% in [3]; 93.3% in [8]; 68.9% in [10]; 52.1% in [12]; 100% in assay [14]. For the same molecule, the “% binding of analyte mAb” value is 29.2% in [19] and 76.6% in assay [20]. Also, in assay [21], the EC50/EC50WTprot came to 3.1 fold. Besides, in assay [22], a half-maximal response (EC50) required 2.19 nM. In assay [23], the binding result is listed as “no binding (tested: Log M -7.4 (about 40 nM))”. Moreover, the “EC50 (read off the curve)” value with Human PSGL-1(ECD)-HIS is about 0.9 nM.
